Data reported in article PMC9426534, “Interactions of Bacterial Toxin CNF1 and Host JAK1/2 Driven by Liquid-Liquid Phase Separation Enhance Macrophage Polarization” (mBio, 2022).

B1: FLAG-CNF1 truncation mutant 1-720 (N2) (domain or fragment)
chain: MGNQWQQKYLLEYNELVSNFPSPERVVSDYIKNCFKTDLPWFSRIDPDNAYFICFSQNRSNSRSYTGWDHLGKYKTEVLTLTQAALINIGYRFDVFDDANSSTGIYKTKSADVFNEENEEKMLPSEYLHFLQKCDFAGVYGKTLSDYWSKYYDKFKLLLKNYYISSALYLYKNGELDEREYNFSMNALNRSDNISLLFFDIYGYYASDIFVAKNNDKVMLFIPGAKKPFLFKKNIADLRLTLKELIKDSDKQQLLSQHFSLYSRQDGVSYAGVNSVLHAIENDGNFNESYFLYSNKTLSNKDVFDAIAISVKKRSFSDGDIVIKSNSEAQRDYALTILQTILSMTPIFDIVVPEVSVPLGLGIITSSMGISFDQLINGDTYEERRSAIPGLATNAVLLGLSFAIPLLISKAGINQEVLSSVINNEGRTLNETNIDIFLKEYGIAEDSISSTNLLDVKLKSSGQHVNIVKLSDEDNQIVAVKGSSLSGIYYEVDIETGYEILSRRIYRTEYNNEILWTRGGGLKGGQPFDFESLNIPVFFKDEPYSAVTGSPLSFINDDSSLLYPDTNPKLPQPTSEMDIVNYVKGSGSFGDRFVTLMRGATEEEAWNIASYHTAGGSTEELHEILLGQGPQSSLGFTEYTSNVNSADAASRRHFLVVIKVHVKYITNNNVSYVNHWAIPDEAPVEVLAVVDRRFNFPEPSTPPDISTIRKLLSLRYFKES
notes: source: recombinant, purified
B2: MYC-JAK1 truncation mutant 1-855 (domain or fragment)
chain: MQYLNIKEDCNAMAFCAKMRSSKKTEVNLEAPEPGVEVIFYLSDREPLRLGSGEYTAEELCIRAAQACRISPLCHNLFALYDENTKLWYAPNRTITVDDKMSLRLHYRMRFYFTNWHGTNDNEQSVWRHSPKKQKNGYEKKKIPDATPLLDASSLEYLFAQGQYDLVKCLAPIRDPKTEQDGHDIENECLGMAVLAISHYAMMKKMQLPELPKDISYKRYIPETLNKSIRQRNLLTRMRINNVFKDFLKEFNNKTICDSSVSTHDLKVKYLATLETLTKHYGAEIFETSMLLISSENEMNWFHSNDGGNVLYYEVMVTGNLGIQWRHKPNVVSVEKEKNKLKRKKLENKHKKDEEKNKIREEWNNFSYFPEITHIVIKESVVSINKQDNKKMELKLSSHEEALSFVSLVDGYFRLTADAHHYLCTDVAPPLIVHNIQNGCHGPICTEYAINKLRQEGSEEGMYVLRWSCTDFDNILMTVTCFEKSEQVQGAQKQFKNFQIEVQKGRYSLHGSDRSFPSLGDLMSHLKKQILRTDNISFMLKRCCQPKPREISNLLVATKKAQEWQPVYPMSQLSFDRILKKDLVQGEHLGRGTRTHIYSGTLMDYKDDEGTSEEKKIKVILKVLDPSHRDISLAFFEAASMMRQVSHKHIVYLYGVCVRDVENIMVEEFVEGGPLDLFMHRKSDVLTTPWKFKVAKQLASALSYLEDKDLVHGNVCTKNLLLAREGIDSECGPFIKLSDPGIPITVLSRQECIERIPWIAPECVEDSKNLSVAADKWSFGTTLWEICYNGEIPLKDKTLIEKERFYESRCRPVTPSCKELADLMTRCMNYDPNQRPFFRAIMRDINKLEEQNPDI
notes: source: recombinant, purified
B3: MYC-JAK1 truncation mutant 1-544 (domain or fragment)
chain: MQYLNIKEDCNAMAFCAKMRSSKKTEVNLEAPEPGVEVIFYLSDREPLRLGSGEYTAEELCIRAAQACRISPLCHNLFALYDENTKLWYAPNRTITVDDKMSLRLHYRMRFYFTNWHGTNDNEQSVWRHSPKKQKNGYEKKKIPDATPLLDASSLEYLFAQGQYDLVKCLAPIRDPKTEQDGHDIENECLGMAVLAISHYAMMKKMQLPELPKDISYKRYIPETLNKSIRQRNLLTRMRINNVFKDFLKEFNNKTICDSSVSTHDLKVKYLATLETLTKHYGAEIFETSMLLISSENEMNWFHSNDGGNVLYYEVMVTGNLGIQWRHKPNVVSVEKEKNKLKRKKLENKHKKDEEKNKIREEWNNFSYFPEITHIVIKESVVSINKQDNKKMELKLSSHEEALSFVSLVDGYFRLTADAHHYLCTDVAPPLIVHNIQNGCHGPICTEYAINKLRQEGSEEGMYVLRWSCTDFDNILMTVTCFEKSEQVQGAQKQFKNFQIEVQKGRYSLHGSDRSFPSLGDLMSHLKKQILRTDNISFMLKRCC
notes: source: recombinant, purified
B4: FLAG-CNF1 truncation mutant 190-1014 (C1) (domain or fragment)
chain: RSDNISLLFFDIYGYYASDIFVAKNNDKVMLFIPGAKKPFLFKKNIADLRLTLKELIKDSDKQQLLSQHFSLYSRQDGVSYAGVNSVLHAIENDGNFNESYFLYSNKTLSNKDVFDAIAISVKKRSFSDGDIVIKSNSEAQRDYALTILQTILSMTPIFDIVVPEVSVPLGLGIITSSMGISFDQLINGDTYEERRSAIPGLATNAVLLGLSFAIPLLISKAGINQEVLSSVINNEGRTLNETNIDIFLKEYGIAEDSISSTNLLDVKLKSSGQHVNIVKLSDEDNQIVAVKGSSLSGIYYEVDIETGYEILSRRIYRTEYNNEILWTRGGGLKGGQPFDFESLNIPVFFKDEPYSAVTGSPLSFINDDSSLLYPDTNPKLPQPTSEMDIVNYVKGSGSFGDRFVTLMRGATEEEAWNIASYHTAGGSTEELHEILLGQGPQSSLGFTEYTSNVNSADAASRRHFLVVIKVHVKYITNNNVSYVNHWAIPDEAPVEVLAVVDRRFNFPEPSTPPDISTIRKLLSLRYFKESIESTSKSNFQKLSRGNIDVLKGRGSISSTRQRAIYPYFEAANADEQQPLFFYIKKDRFDNHGYDQYFYDNTVGLNGIPTLNTYTGEIPSDSSSLGSTYWKKYNLTNETSIIRVSNSARGANGIKIALEEVQEGKPVIITSGNLSGCTTIVARKEGYIYKVHTGTTKSLAGFTSTTGVKKAVEVLELLTKEPIPRVEGIMSNDFLVDYLSENFEDSLITYSSSEKKPDSQITIIRDNVSVFPYFLDNIPEHGFGTSATVLVRVDGNVVVRSLSESYSLNADASEISVLKVFSKKF
notes: source: recombinant, purified

Experiments:
[1] = biological target: T1, MYC-tagged JAK1, full length (UniProt P23458 1-1154); experiment: co-IP; in vitro, purified proteins; truncated FLAG-tagged CNF1 proteins precipitated, MYC-tagged JAK1 detected and normalised to the FLAG-CNF1 in the IP; conditions: both partners purified
T1 construct: also called MYC-JAK1; MYC-tagged full-length JAK1; source: HeLa, transfected, in lysate

[2] = biological target: T2, Cytotoxic necrotizing factor 1 (CNF1), recombinant FLAG-tagged, full length (uropathogenic Escherichia coli (UPEC), UniProt Q47106 1-1014); experiment: co-IP; in vitro, purified proteins; truncated MYC-tagged JAK1 proteins precipitated, FLAG-tagged CNF1 detected and normalised to the MYC-JAK1 in the IP; conditions: both partners purified
T2 construct: also called FLAG-CNF1; FLAG-tagged full-length CNF1; source: recombinant, purified (additionally by size exclusion chromatography)

Binder | binding result [1] | binding result [2]
B1 | binds | 
B2 |  | binds
B3 |  | binds
B4 | binds | 
